The target of assay [1] is T1, FOLR1-Fc (UniProt P15328 25-234, limits assumed).
T1 construct: also called FOLR1 (ELISA coating); not shown: Fc part
Nature of the assay: ELISA, FOLR1-Fc coated, antibody titrated (experiment with vAb1). The protocol:
(§1) For the purpose of comparing the binding affinities of the primarily selected clones with each other, ELISA was performed at different clone concentrations in the following manner. 25 μL of FOLR1 was added to each well of a 96-well plate at a concentration of 1 μg/mL, coated on the plate at room temperature for 1 hour, and then blocked with 180 μL of 3% skim milk at room temperature for 1 hour. During blocking, samples to be used as primary antibodies were prepared. As primary antibodies, samples selected by screening were used. The samples were diluted to a concentration of 0.1 to 100 nM (0, 0.1, 0.3, 1, 3, 10, 30, and 100 nM) and cold-stored until use. After blocking, 3% skim milk was removed, and 25 μL of the primary antibody was added to each well and allowed to react at room temperature for 1 hour or more. After completion of the reaction, each well was washed three times with PBS-Tween20 (0.1%) buffer. […] After about 5 minutes, 25 μL of 1 M H₂SO₄ was added to each well to stop the reaction, and the absorbance at a wavelength of 450 nm was measured. From the measurement results, the EC (Effector concentration) value was calculated using the GraphPad Prism 7 program.
(§2) The measured values are obtained in different experiments for comparison with the parent antibody.
In general terms: An ELISA detects its analyte on a solid surface through an enzyme-linked reagent.

Assay [2] addresses T1, FOLR1-Fc. Nature of the assay: ELISA, FOLR1-Fc coated, antibody titrated (experiment with vAb2). The protocol: as §1, §2
For assay [3], the target named is T2, Folate receptor alpha (FOLR1) (human, UniProt P15328 25-234, limits assumed).
T2 construct: Antigen printed simply as FOLR1 for the panning, the clone ELISA and the SPR chip; also called human FOLR1; folate receptor-α
T2 sequence (P15328 25-234 limits assumed): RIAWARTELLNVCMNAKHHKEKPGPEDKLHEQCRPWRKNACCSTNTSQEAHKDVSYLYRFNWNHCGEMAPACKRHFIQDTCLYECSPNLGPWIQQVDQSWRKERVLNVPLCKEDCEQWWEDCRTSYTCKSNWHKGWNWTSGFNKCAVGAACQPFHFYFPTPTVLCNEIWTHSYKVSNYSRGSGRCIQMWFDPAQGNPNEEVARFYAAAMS
Nature of the assay: SPR, Biacore3000, FOLR1 immobilised; the parent is the reference. The protocol:
(§3) To measure the binding affinity of the selected clone for FOLR1, SPR measurement was performed using a Biacore3000. Before each sample was loaded, a CM5 sensor chip was activated with 0.1 M NHS/0.4 M EDC, and then FOLR1 (20 μg/mL in 10 mM acetate, pH 5.0) was immobilized thereon. Then, unreacted NHS was deactivated with 1 M ethanolamine. 250 μL of each sample was prepared at concentrations of 1, 2, 5, 10, 20 and 40 nM, and association and dissociation sensorgrams were obtained while each sample was flushed at 30 μl/min. The sensor chip was regenerated with 10 mM glycine (pH 2.1). The obtained sensorgrams were analyzed using the BIAevaluation software, and the KD values were calculated.
(§4) To measure the binding affinity of the modified antibody vAb1 produced in Example 2 for FOLR1, an SPR assay was performed using a Biacore3000, in the same manner as described in Examples 1-5. The sensorgram was analyzed using the BIAevaluation software, and the KD value was calculated. […] This value is similar to the relative ratio of the values obtained using ELISA.
(In SPR one partner is held on a chip, and binding of the other changes the refractive index at the surface.)

The target in assay [4] is T2, Folate receptor alpha (FOLR1). Nature of the assay: SPR, Biacore3000, FOLR1 immobilised on CM5 chip, antibody as analyte. The protocol:
as §3, §4

For assay [5], the target named is T1, FOLR1-Fc. As to the kind of experiment: ELISA, FOLR1-Fc coated (experiment with vAb1); the parent is the reference.
Assay [6] addresses T1, FOLR1-Fc. As to the kind of experiment: ELISA, FOLR1-Fc coated (experiment with vAb2); the parent is the reference.
In assay [7] the target is T1, FOLR1-Fc. Nature of the assay: ELISA, FOLR1-Fc coated, antibody titrated (experiment with vAb3, vAb4, vAb5). As for the experimental part:
as §1, §2

The target of assay [8] is T1, FOLR1-Fc. Nature of the assay: ELISA, FOLR1-Fc coated (experiment with vAb3, vAb4, vAb5); the parent is the reference. The protocol:
as §1, §2

The target of assay [9] is T2, Folate receptor alpha (FOLR1). Nature of the assay: screening ELISA of panned phage library clones on FOLR1.
For assay [10], the target named is T1, FOLR1-Fc. As to the kind of experiment: ELISA, FOLR1-Fc coated. The protocol:
(§5) For the purpose of comparing the binding affinities of the primarily selected clones with each other, ELISA was performed at different clone concentrations in the following manner. 25 μL of FOLR1 was added to each well of a 96-well plate at a concentration of 1 μg/mL, coated on the plate at room temperature for 1 hour, and then blocked with 180 μL of 3% skim milk at room temperature for 1 hour. During blocking, samples to be used as primary antibodies were prepared. As primary antibodies, samples selected by screening were used. The samples were diluted to a concentration of 0.1 to 100 nM (0, 0.1, 0.3, 1, 3, 10, 30, and 100 nM) and cold-stored until use. After blocking, 3% skim milk was removed, and 25 μL of the primary antibody was added to each well and allowed to react at room temperature for 1 hour or more. After completion of the reaction, each well was washed three times with PBS-Tween20 (0.1%) buffer. As a secondary antibody, HA-HRP was diluted 3,000-fold with 3% skim milk, and 25 μL of the dilution was added to each well and allowed to react at room temperature for 1 hour or more. After completion of the reaction, each well was washed three times with PBS-Tween20 (0.1%), and 25 μL of substrate TMB was added to each well to confirm color development. After about 5 minutes, 25 μL of 1 M H₂SO₄ was added to each well to stop the reaction, and the absorbance at a wavelength of 450 nm was measured. From the measurement results, the EC (Effector concentration) value was calculated using the GraphPad Prism 7 program.
as §2

Assay [11] addresses T1, FOLR1-Fc. As to the kind of experiment: ELISA, FOLR1-Fc coated, antibody titrated. The protocol: as §5, §2
Assay [12] deals with T2, Folate receptor alpha (FOLR1). Nature of the assay: SPR, Biacore3000, FOLR1 immobilised. The protocol: as §3, §4

The source of these data is US20210009685A1 (ALTEOGEN, published 2021).

The term EC50 denotes the concentration needed to bring the measured effect to its halfway point. Low readings indicate an effect from little substance, high ones a need for much substance. The term Kd denotes the free concentration of one partner at which half of the binding sites on the other are occupied at equilibrium, for simple one-to-one binding. Low values mean higher affinity, high ones lower affinity. The koff is the first-order rate constant of dissociation. Usually kon stands for a measure of how fast the partners come together. Low readings indicate slower complex formation, high ones faster complex formation.

Where a chain is given by its changes, count along the chain named.

T1 sequence (P15328 25-234 limits assumed): as above

B1: Parent antibody (anti-FOLR1 antibody of US2005/0232919 A1) (antibody, V domains shown)
VH: EVQLVESGGGVVQPGRSLRLSCSASGFTFSGYGLSWVRQAPGKGLEWVAMISSGGSYTYYADSVKGRFAISRDNAKNTLFLQMDSLRPEDTGVYFCARHGDDPAWFAYWGQGTPVTVSS
VL: DIQLTQSPSSLSASVGDRVTITCSVSSSISSNNLHWYQQKPGKAPKPWIYGTSNLASGVPSRFSGSGSGTDYTFTISSLQPEDIATYYCQQWSSYPYMYTFGQGTKVEIK
notes: also called WT
Take B1: the EC50 came to 11 ng/mL in the assay with FOLR1-Fc [1], 11.8 ng/mL in the assay with FOLR1-Fc [2] and 3.04 ng/mL in the assay with FOLR1-Fc [7]. Also, the “Relative Potency” value (in assay [3]; with FOLR1-Fc [5]; with FOLR1-Fc [6]; in the assay with FOLR1-Fc [8]) was 1 fold (reference) throughout. Besides, the Ka in assay [4] was determined as 1.05e+09 M⁻¹. For the same molecule, the equilibrium dissociation constant (Kd) in assay [4] is 0.96 nM. In addition, in assay [4], the dissociation rate constant (koff) came out at 0.000401 s⁻¹. The molecule further yielded a kon in assay [4] of 419000 M⁻¹ s⁻¹.

B2: CDR-L1 library clone H7 (Fab, V domains shown)
VH: B1 VH
VL: B1 VL with I29L, N32S
notes: Fab clone from the phage library on the parent Fab template; Only the CDR-L1 is printed
As to B2, the binding result in assay [9] is listed as “binds”.

B3: Modified antibody vAb4 (antibody, V domains shown)
VH: B1 VH
VL: B1 VL with N54S, L55R
notes: Carries modified CDR-L2
As to B3, the “Relative Potency” value with FOLR1-Fc [10] was 1.94 fold against parent antibody. A half-maximal effect in the assay with FOLR1-Fc [11] (EC50) was put at 1.59 ng/mL.

B4: CDR-L2 library clone H2 (Fab, V domains shown)
VH: B1 VH
VL: B1 VL with G51T, T52A, N54S, L55R
notes: Fab clone from the phage library on the parent Fab template; Only the CDR-L2 is printed
B4: the binding result in assay [9] was “binds”.

B5: CDR-L2 library clone C3 (Fab, V domains shown)
VH: B1 VH
VL: B1 VL with G51A, L55R, A56E
notes: as for B4
In the case of B5, the binding result in assay [9] was “binds”.

B6: Modified antibody vAb2 (antibody, V domains shown)
VH: B1 VH
VL: B1 VL with V25A, S28G, I29L, N32S, N33Y, N54S, L55R
notes: Carries modified CDR-L1 and CDR-L2
Consider B6, for which, in the assay with FOLR1-Fc [10], the “Relative Potency” value was 3.04 fold against parent antibody. In the assay with FOLR1-Fc [11], this molecule came in with an EC50 of 3.94 ng/mL.

B7: CDR-L2 library clone B1 (Fab, V domains shown)
VH: B1 VH
VL: B1 VL with G51A, N54S, L55R, S57T
notes: as for B4
Consider B7, for which, in assay [9], the binding result is listed as “binds”.

B8: CDR-L1 library clone D7 (Fab, V domains shown)
VH: B1 VH
VL: B1 VL with S24R, V25A, S28G, I29L
notes: as for B2
With B8, in assay [9], the binding result is “binds”.

B9: CDR-L2 library clone G3 (Fab, V domains shown)
VH: B1 VH
VL: B1 VL with G51A
notes: as for B4
On to B9, for which the binding result in [9] is reported as “binds”.

B10: Modified antibody vAb3 (antibody, V domains shown)
VH: B1 VH
VL: B1 VL with V25A, S28G, I29L, N32S, N33Y
notes: Carries modified CDR-L1
As for B10, the “Relative Potency” value in the assay with FOLR1-Fc [10] was 3.99 fold against parent antibody. For the same molecule, the half-maximal effective concentration (EC50) with FOLR1-Fc [11] worked out at 0.77 ng/mL.

B11: Modified antibody vAb5 (antibody, V domains shown)
VH: B1 VH with P103V
VL: B1 VL
notes: Carries modified CDR-H3
For the molecule B11, in the assay with FOLR1-Fc [10], the “Relative Potency” value is 1.42 fold against parent antibody. Further, a half-maximal response with FOLR1-Fc [11] (EC50) required 2.17 ng/mL.

B12: CDR-L2 library clones E9, G6 (Fab, V domains shown)
VH: B1 VH
VL: B1 VL with T52A, N54S, S57T
notes: Fab clones from the phage library on the parent Fab template; Only the CDR-L2 is printed
Consider B12, for which, in [9], the binding result was “binds”.

B13: CDR-L2 library clone C10 (Fab, V domains shown)
VH: B1 VH
VL: B1 VL with G51A, N54S, S57T
notes: as for B4
As to B13, the binding result in [9] was “binds”.

B14: CDR-L1 library clone F3 (Fab, V domains shown)
VH: B1 VH
VL: B1 VL with S24R, V25A, S28G, I29V
notes: as for B2
For the molecule B14, in assay [9], the binding result is listed as “binds”.

B15: CDR-L1 library clone C7 (Fab, V domains shown)
VH: B1 VH
VL: B1 VL with V25A, I29L, N32S, N33Y
notes: as for B2
As to B15, in [9], the binding result was “binds”.

B16: CDR-L1 library clone D5 (Fab, V domains shown)
VH: B1 VH
VL: B1 VL with S24R, S28G
notes: as for B2
For B16, the binding result in assay [9] is reported as “binds”.

B17: Modified antibody vAb1 (antibody, V domains shown)
VH: B1 VH with P103V
VL: B1 VL with V25A, S28G, I29L, N32S, N33Y, N54S, L55R
notes: Carries modified CDR-H3, CDR-L1 and CDR-L2
As for B17, the “Relative Potency” value in the assay with FOLR1-Fc [10] was 4.48 fold against parent antibody. Moreover, the “Relative Potency” value in [12] is 4 fold against parent antibody. In the assay with FOLR1-Fc [11], this molecule registered a concentration for a half-maximal effect (EC50) of 2.45 ng/mL. Besides, in [4], the Ka is 4.17e+09 M⁻¹, the dissociation constant Kd came out at 0.24 nM, the koff amounted to 0.000147 s⁻¹ and the kon came out at 612000 M⁻¹ s⁻¹.

B18: CDR-L1 library clone H1 (Fab, V domains shown)
VH: B1 VH
VL: B1 VL with V25A, N32S, N33Y
notes: as for B2
B18: the binding result in assay [9] was “binds”.
